# Substitutions are numbered along the chain they refer to.
# B1: humanized P3D12 antibody, HC SEQ ID NO: 105 (P3D12 VH-fra) / LC SEQ ID NO: 46 (P3D12 VL-ven) (antibody, V domains shown)
# VH: QVQLQQSGAEVKKPGASVKVSCKASGYTFTSYWMHWVKQRPGQGLDWIGYIKPSTDNTEYNQKFKDRVTLTADKSTSTAYMQLSNLISEDTAVYYCARSYGNYPLMDYWGQGTSVTVSS
# VL: QIVLTQSPATMSASPGERVTLSCSASSSVTSNYLYWYQQKPGSSPRLWIYSTSNLASGVPARFSGSGSGTSYTLTISRMEPEDAASYFCHQWSSYPPTFGSGTKLEIKR
# B2: humanized P3D12 antibody, HC SEQ ID NO: 108 (P3D12 VH-cdr) / LC SEQ ID NO: 47 (P3D12 VL-fra) (antibody, V domains shown)
# VH: B1 VH with Q5V, R40A, R67K, V68A, Q82E, N85S, I87R, S114T
# VL: B1 VL with T10I, M11L, A13L, V19A, R46K, W48L, R78S, M79L, P81A
# B3: humanized P3D12 antibody, HC SEQ ID NO: 107 (P3D12 VH-abb/sdr) / LC SEQ ID NO: 47 (P3D12 VL-fra) (antibody, V domains shown)
# VH: B1 VH with Q5V, R40A, I48M, N61A, K65Q, D66G, Q82E, N85S, I87R, S114T
# VL: B1 VL with T10I, M11L, A13L, V19A, R46K, W48L, R78S, M79L, P81A
# B4: humanized P3D12 antibody, HC SEQ ID NO: 105 (P3D12 VH-fra) / LC SEQ ID NO: 47 (P3D12 VL-fra) (antibody, V domains shown)
# VH: B1 VH
# VL: B1 VL with T10I, M11L, A13L, V19A, R46K, W48L, R78S, M79L, P81A
# B5: humanized P3D12 antibody, HC SEQ ID NO: 108 (P3D12 VH-cdr) / LC SEQ ID NO: 48 (P3D12 VL-abb/sdr) (antibody, V domains shown)
# VH: B1 VH with Q5V, R40A, R67K, V68A, Q82E, N85S, I87R, S114T
# VL: B1 VL with M11L, A13L, V19A, S24R, S27Q, W48L, S71D, M79L, A84F
# B6: humanized P3D12 antibody, HC SEQ ID NO: 108 (P3D12 VH-cdr) / LC SEQ ID NO: 49 (P3D12 VL-cdr) (antibody, V domains shown)
# VH: B1 VH with Q5V, R40A, R67K, V68A, Q82E, N85S, I87R, S114T
# VL: B1 VL with M11L, A13L, V19A, W48L, M79L, A84F
# B7: humanized P3D12 antibody, HC SEQ ID NO: 105 (P3D12 VH-fra) / LC SEQ ID NO: 48 (P3D12 VL-abb/sdr) (antibody, V domains shown)
# VH: B1 VH
# VL: B1 VL with M11L, A13L, V19A, S24R, S27Q, W48L, S71D, M79L, A84F
# B8: humanized P3D12 antibody, HC SEQ ID NO: 105 (P3D12 VH-fra) / LC SEQ ID NO: 49 (P3D12 VL-cdr) (antibody, V domains shown)
# VH: B1 VH
# VL: B1 VL with M11L, A13L, V19A, W48L, M79L, A84F
# B9: humanized P3D12 antibody, HC SEQ ID NO: 108 (P3D12 VH-cdr) / LC SEQ ID NO: 46 (P3D12 VL-ven) (antibody, V domains shown)
# VH: B1 VH with Q5V, R40A, R67K, V68A, Q82E, N85S, I87R, S114T
# VL: B1 VL
# B10: F6AP8E2 mouse monoclonal anti-cMET antibody (antibody, V domains shown)
# VH: EVQLQQSGAELVRPGALVKLSCKASGFNINDYFMHWVKQRPEQGLEWIGWIDPENGNTIYDPKFQGKASITADTSSNTAYLQLSSLTSEDTAVYYCARGGNYLRESYYYAMDYWGQGTSVTVSS
# VL: DIVMTQSPKSMSMSVGERVTLSCKASENVGTYVSWYQQKPDQSPKLLIYGASNRYTGVPDRFTGSGSATDFTLTISSVQAEDLADYHCGQSYSYPLTFGAGTKLELKR
# notes: Mouse hybridoma antibody
# B11: F6B1P3D12 mouse monoclonal anti-cMET antibody (antibody, V domains shown)
# VH: B1 VH with V11L, K12A, V20M, K23R, R67K, V68A, T76S, N85S, I87T, T91S
# VL: B1 VL with T10I, R18K, S22T, R46K, T73S, R78S, P81A
# notes: Mouse hybridoma antibody
# B12: F6B1P1E2 mouse monoclonal anti-cMET antibody (antibody, V domains shown)
# VH: QVQLQQSGAELAKPGASVKMSCKASGYTFTSYWMHWVKQRPGQGLEWIGYINPSTDYTEYNQKFKDKATLTADKSSTTAYMQLSSLTSEDSAVYYCVRSYGNYPLMDYWGQGTSVTVSS
# VL: B1 VL with T10I, R18K, S22T, T30S, Q38H, R46K, A61V, T73S, R78S, P81A
# notes: Mouse hybridoma antibody
# B13: F6BP2D4 mouse monoclonal anti-cMET antibody (antibody, V domains shown)
# VH: B12 VH with T58I, D73G, T77S, V97A, Y103F
# VL: B1 VL with T10I, R18K, S22T, T30S, R46K, A61V, T73S, R78S, P81A
# notes: Mouse hybridoma antibody
# B14: hD12-VII (antibody hD12 attached to the payload of chemical formula VII, stochastic conjugation) (antibody, human IgG2, kappa, V domains shown)
# VH: B1 VH with Q5V, R40A, R67K, V68A, Q82E, N85S, I87R, S114T
# VL: B1 VL with T10I, M11L, A13L, V19A, R46K, W48L, R78S, M79L, P81A
# modifications: payload possibly on cysteines (random positions); payload of chemical formula VII linked through maleimide to cysteine thiols at random positions
# notes: Antibody-drug conjugate; also called hD12-vc-VII
# B15: hD12-II (antibody hD12 attached to the payload of chemical formula II, stochastic conjugation) (antibody, human IgG2, kappa, V domains shown)
# VH: B1 VH with Q5V, R40A, R67K, V68A, Q82E, N85S, I87R, S114T
# VL: B1 VL with T10I, M11L, A13L, V19A, R46K, W48L, R78S, M79L, P81A
# modifications: payload possibly on cysteines (random positions); payload of chemical formula II (pyrrolobenzodiazepine toxin and linking group) linked through maleimide to cysteine thiols at random positions
# notes: also called hD12-vc-II
# B16: hD12-XI (antibody hD12 attached to the payload of chemical formula XI, stochastic conjugation) (antibody, human IgG2, kappa, V domains shown)
# VH: B1 VH with Q5V, R40A, R67K, V68A, Q82E, N85S, I87R, S114T
# VL: B1 VL with T10I, M11L, A13L, V19A, R46K, W48L, R78S, M79L, P81A
# modifications: payload possibly on cysteines (random positions); payload of chemical formula XI linked through maleimide to cysteine thiols at random positions
# notes: Antibody-drug conjugate; also called hD12-vc-XI
# B17: hD12-VI (antibody hD12 attached to the payload of chemical formula VI, stochastic conjugation) (antibody, human IgG2, kappa, V domains shown)
# VH: B1 VH with Q5V, R40A, R67K, V68A, Q82E, N85S, I87R, S114T
# VL: B1 VL with T10I, M11L, A13L, V19A, R46K, W48L, R78S, M79L, P81A
# modifications: payload possibly on cysteines (random positions); payload of chemical formula VI linked through maleimide to cysteine thiols at random positions
# notes: Antibody-drug conjugate; also called hD12-vc-VI
# B18: hD12-IV (antibody hD12 attached to the payload of chemical formula IV, stochastic conjugation) (antibody, human IgG2, kappa, V domains shown)
# VH: B1 VH with Q5V, R40A, R67K, V68A, Q82E, N85S, I87R, S114T
# VL: B1 VL with T10I, M11L, A13L, V19A, R46K, W48L, R78S, M79L, P81A
# modifications: payload possibly on cysteines (random positions); payload of chemical formula IV linked through maleimide to cysteine thiols at random positions
# notes: Antibody-drug conjugate; also called hD12-vc-IV
# Biological target: T1, rat cMET (rat, UniProt P97523 25-935, limits assumed)
# T1 construct: also called rMET
# T1 sequence (P97523 25-935 limits assumed): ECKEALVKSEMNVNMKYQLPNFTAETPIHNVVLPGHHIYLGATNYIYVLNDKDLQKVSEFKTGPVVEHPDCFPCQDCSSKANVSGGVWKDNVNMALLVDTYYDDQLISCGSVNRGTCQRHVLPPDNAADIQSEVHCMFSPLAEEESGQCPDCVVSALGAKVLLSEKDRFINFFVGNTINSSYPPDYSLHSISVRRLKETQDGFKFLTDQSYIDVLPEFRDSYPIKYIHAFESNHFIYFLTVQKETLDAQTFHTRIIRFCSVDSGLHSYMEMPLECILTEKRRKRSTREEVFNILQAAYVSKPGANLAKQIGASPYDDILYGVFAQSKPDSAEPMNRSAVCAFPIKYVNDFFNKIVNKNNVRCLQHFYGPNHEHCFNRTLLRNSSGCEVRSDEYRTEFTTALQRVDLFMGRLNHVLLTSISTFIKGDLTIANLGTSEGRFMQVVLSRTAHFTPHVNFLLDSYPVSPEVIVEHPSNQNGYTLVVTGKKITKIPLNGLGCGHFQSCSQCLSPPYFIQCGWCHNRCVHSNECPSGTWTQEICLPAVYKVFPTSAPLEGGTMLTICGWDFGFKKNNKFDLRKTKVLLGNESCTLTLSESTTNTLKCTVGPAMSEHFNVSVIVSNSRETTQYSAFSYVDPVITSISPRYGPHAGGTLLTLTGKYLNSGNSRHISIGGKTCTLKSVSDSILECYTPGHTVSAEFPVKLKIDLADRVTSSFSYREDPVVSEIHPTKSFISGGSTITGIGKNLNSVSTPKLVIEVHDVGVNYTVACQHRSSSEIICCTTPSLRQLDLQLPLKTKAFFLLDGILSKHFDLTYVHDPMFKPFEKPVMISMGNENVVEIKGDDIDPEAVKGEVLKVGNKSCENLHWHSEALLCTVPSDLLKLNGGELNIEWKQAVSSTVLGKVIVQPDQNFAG
# Experiment: ELISA on rat cMET, ratio against the parental antibody
row,Molecule,ELISA rMET vs parental
1,B1,1.2
2,B2,0.9
3,B3,0.5
4,B4,1.4
5,B5,2.7
6,B6,2
7,B7,3.8
8,B8,2.3
9,B9,1

# Biological target: T2, human cMET (human, UniProt P08581 25-932, limits assumed)
# T2 construct: also called hMET; HGFR
# T2 sequence (P08581 25-932 limits assumed): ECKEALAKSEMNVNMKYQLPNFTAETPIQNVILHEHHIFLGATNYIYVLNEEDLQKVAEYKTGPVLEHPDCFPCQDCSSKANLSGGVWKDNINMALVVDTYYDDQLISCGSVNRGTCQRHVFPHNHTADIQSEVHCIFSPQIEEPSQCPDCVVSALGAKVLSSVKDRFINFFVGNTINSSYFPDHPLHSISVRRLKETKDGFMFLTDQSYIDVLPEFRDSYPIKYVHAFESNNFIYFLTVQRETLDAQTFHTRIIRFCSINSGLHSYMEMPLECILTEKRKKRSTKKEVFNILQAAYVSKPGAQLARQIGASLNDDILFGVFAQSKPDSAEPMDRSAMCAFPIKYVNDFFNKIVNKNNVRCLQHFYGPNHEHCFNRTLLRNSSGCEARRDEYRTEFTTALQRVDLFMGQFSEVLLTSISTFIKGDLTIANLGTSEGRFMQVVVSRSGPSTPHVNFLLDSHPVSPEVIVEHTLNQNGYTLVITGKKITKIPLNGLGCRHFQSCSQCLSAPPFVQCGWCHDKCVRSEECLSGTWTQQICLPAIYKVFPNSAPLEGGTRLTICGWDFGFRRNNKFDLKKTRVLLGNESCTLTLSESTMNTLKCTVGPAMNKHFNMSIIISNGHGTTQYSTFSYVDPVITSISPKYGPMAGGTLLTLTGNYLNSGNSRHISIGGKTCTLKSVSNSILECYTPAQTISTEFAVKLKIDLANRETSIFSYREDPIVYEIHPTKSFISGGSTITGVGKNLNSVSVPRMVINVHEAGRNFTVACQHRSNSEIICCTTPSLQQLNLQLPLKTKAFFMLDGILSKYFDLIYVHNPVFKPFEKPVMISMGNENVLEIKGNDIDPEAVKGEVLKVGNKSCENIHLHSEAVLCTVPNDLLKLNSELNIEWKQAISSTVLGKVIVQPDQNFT
# Experiment: SPR (Met Binding KD)
row,Molecule,Kd
1,"5D5 (agonist Met-mAb antibody, agonist positive control)",0.85 nM
2,B10,0.18 nM

# Biological target: T2, human cMET
# Experiment: ELISA on human cMET, ratio against the parental antibody
row,Molecule,ELISA hMET vs parental
1,B1,1.7
2,B2,0.7
3,B3,1
4,B4,1.7
5,B5,1.3
6,B6,1
7,B7,1.8
8,B8,1.7
9,B9,1.1

# Biological target: T2, human cMET
# Experiment: ELISA, species cross-reactivity, antibody titrated on human cMET; x axis printed -8 to 2 with ug/mL (log10)
row,Molecule,EC50 (read off the curve)
1,B11,~0.2 µg/mL
2,B12,~0.2 µg/mL
3,B13,~0.2 µg/mL
4,B10,~0.2 µg/mL

# Biological target: T3, monkey cMET (Macaca fascicularis, Cynomolgus Macaque) (Cynomolgus Macaque (Macaca fascicularis), UniProt A0A2K5UM36 25-932)
# T3 construct: also called Cyno cMET; NHP
# T3 sequence (A0A2K5UM36 entry or part of it limits assumed): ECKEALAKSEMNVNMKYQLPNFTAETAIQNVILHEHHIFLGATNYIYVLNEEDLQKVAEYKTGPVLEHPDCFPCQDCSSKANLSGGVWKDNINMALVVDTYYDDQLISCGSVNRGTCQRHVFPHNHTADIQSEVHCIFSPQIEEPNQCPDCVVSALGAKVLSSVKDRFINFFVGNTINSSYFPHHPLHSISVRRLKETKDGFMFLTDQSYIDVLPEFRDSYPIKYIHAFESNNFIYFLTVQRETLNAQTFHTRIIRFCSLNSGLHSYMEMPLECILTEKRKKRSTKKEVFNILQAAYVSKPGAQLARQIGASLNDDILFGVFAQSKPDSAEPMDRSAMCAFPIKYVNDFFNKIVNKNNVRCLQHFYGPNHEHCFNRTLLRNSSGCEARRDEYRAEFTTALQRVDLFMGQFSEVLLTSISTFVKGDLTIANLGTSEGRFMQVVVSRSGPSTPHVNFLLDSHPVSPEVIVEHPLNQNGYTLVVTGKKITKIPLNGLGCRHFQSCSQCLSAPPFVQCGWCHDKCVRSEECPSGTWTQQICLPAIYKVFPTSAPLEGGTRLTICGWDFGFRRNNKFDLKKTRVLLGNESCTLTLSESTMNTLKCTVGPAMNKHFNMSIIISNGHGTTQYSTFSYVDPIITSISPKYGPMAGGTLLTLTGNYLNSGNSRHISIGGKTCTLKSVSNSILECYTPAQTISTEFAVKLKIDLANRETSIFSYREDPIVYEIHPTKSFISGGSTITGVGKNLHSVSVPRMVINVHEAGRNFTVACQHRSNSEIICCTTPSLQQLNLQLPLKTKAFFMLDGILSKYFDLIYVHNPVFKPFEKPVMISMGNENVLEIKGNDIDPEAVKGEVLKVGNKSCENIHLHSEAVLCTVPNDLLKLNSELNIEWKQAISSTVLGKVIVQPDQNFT
# Experiment: ELISA, species cross-reactivity, antibody titrated on cynomolgus cMET; x axis printed -8 to 2 with ug/mL (log10)
row,Molecule,EC50 (read off the curve)
1,B11,~0.2 µg/mL
2,B12,~0.2 µg/mL
3,B13,~0.2 µg/mL
4,B10,~0.2 µg/mL

# Biological target: T4, Recombinant Human c-Met-10x His (human, UniProt P08581 25-932)
# T4 construct: Made in-house
# T4 sequence (P08581 other isoform, or with tags, fused parts or gaps limits assumed): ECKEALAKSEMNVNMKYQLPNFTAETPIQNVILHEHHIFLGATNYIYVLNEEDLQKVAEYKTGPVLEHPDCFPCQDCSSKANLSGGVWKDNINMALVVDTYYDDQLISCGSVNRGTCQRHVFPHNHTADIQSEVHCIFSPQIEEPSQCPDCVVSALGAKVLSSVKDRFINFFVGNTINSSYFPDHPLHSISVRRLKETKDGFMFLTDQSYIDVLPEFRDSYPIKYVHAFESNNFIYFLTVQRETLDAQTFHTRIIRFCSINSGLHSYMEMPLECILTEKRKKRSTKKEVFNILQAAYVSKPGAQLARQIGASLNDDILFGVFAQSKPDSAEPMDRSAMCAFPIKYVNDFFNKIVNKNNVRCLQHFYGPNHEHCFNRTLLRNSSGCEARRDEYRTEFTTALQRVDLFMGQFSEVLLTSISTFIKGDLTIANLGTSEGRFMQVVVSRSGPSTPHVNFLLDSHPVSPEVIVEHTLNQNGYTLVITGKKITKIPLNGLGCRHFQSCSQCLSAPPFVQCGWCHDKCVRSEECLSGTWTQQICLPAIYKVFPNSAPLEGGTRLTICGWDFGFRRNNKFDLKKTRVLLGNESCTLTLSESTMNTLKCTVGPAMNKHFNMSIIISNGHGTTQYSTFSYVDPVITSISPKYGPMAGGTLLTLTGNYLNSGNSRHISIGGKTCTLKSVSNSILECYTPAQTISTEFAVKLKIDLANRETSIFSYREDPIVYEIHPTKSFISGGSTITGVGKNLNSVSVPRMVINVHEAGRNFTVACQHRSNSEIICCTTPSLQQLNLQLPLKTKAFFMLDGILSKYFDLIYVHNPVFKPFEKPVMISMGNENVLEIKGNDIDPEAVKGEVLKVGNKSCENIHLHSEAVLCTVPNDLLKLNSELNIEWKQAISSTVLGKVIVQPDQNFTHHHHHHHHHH
# Experiment: MET Binding ELISA on plate-bound human cMET, direct binding; the half-maximal value is printed as IC50
# Description: Relative binding strength is indicated by luminescence (y-axis).
row,Molecule,IC50
1,B14,0.042 µg/mL
2,B15,0.052 µg/mL
3,B16,0.103 µg/mL
4,B17,0.036 µg/mL
5,B18,0.058 µg/mL
